This note sets out measurements from paper PMC4941815 (Molecular cell, 2016).

Where two headings read alike, the source gives them in different places.

In general, stoichiometry N refers to a count of units in the complex or per binding partner. A word on the Kd: it is a measure of binding affinity in units of concentration.

B1: GST-tagged form of the CLK1 N-terminus (domain or fragment, UniProt P49759 1-160, looked up)
chain: MRHSKRTYCPDWDDKDWDYGKWRSSSSHKRRKRSHSSAQENKRCKYNHSKMCDSHYLESRSINEKDYHSRRYIDEYRNDYTQGCEPGHRQRDHESRYQNHSSKSSGRSGRSSYKSKHRIHHSTSHRRSHGKSHRRKRTRSVEDDEEGHLICQSGDVLSAR
B2: kdSRPK1, kinase inactive SRPK1 containing K109M (enzyme, UniProt Q96SB4 1-655, looked up)
chain: MERKVLALQARKKRTKAKKDKAQRKSETQHRGSAPHSESDLPEQEEEILGSDDDEQEDPNDYCKGGYHLVKIGDLFNGRYHVIRKLGWGHFSTVWLSWDIQGKKFVAMMVVKSAEHYTETALDEIRLLKSVRNSDPNDPNREMVVQLLDDFKISGVNGTHICMVFEVLGHHLLKWIIKSNYQGLPLPCVKKIIQQVLQGLDYLHTKCRIIHTDIKPENILLSVNEQYIRRLAAEATEWQRSGAPPPSGSAVSTAPQPKPADKMSKNKKKKLKKKQKRQAELLEKRMQEIEEMEKESGPGQKRPNKQEESESPVERPLKENPPNKMTQEKLEESSTIGQDQTLMERDTEGGAAEINCNGVIEVINYTQNSNNETLRHKEDLHNANDCDVQNLNQESSFLSSQNGDSSTSQETDSCTPITSEVSDTMVCQSSSTVGQSFSEQHISQLQESIRAEIPCEDEQEQEHNGPLDNKGKSTAGNFLVNPLEPKNAEKLKVKIADLGNACWVHKHFTEDIQTRQYRSLEVLIGSGYNTPADIWSTACMAFELATGDYLFEPHSGEEYTRDEDHIALIIELLGKVPRKLIVAGKYSKEFFTKKGDLKHITKLKPWGLFEVLVEKYEWSQEEAAGFTDFLLPMLELIPEKRATAAECLRHPWLNS
B3: full-length His-tagged CLK1 (enzyme)
chain: not shown

The target of test [1] is T1, His-tagged SRPK1 (UniProt Q96SB4 1-655). The test can be described thus: pull-down.
Test [2] has as its target B3. Nature of the test: displacement of 32P-phospho-GST-SRSF1 from His-CLK1 on Ni-resin.
In test [3] the target is B2. The description is as above.
The target of test [4] is T1, His-tagged SRPK1. Nature of the test: pull-down. This is another data set of the same source.

B1: the binding result in test [1] was “binds”.

On to B2, for which the “stoichiometry N” value in test [2] was 1.

In test [3], B3 showed a Kd of 16 ± 6 nM. The binding result in test [4] is “binds”.
